According to the DeepSol protein solubility set:

Experiment: soluble on expression in E. coli; label from the status in PepcDB or PDB records

Soluble on expression in E. coli, not soluble:
MGSDKIHHHHHHMQKESIYGLTREQLVDWFLAHGEKKFRATQVWEWLYTKRVASFSEMSNISKSLMTLLEENFSLNPLKQVIVQEAQDGTVKYLFELPDKNMIETVLMRQEYGLSVCVTTQVGCNIGCTFCASGLLKKQRDLTAGEIVAQIMWVQHYFDERGLDERVSHVVVMGIGEPFDNYANVMNFLRTINDDKGLAIGARHITVSTSGLVPKIREFADSGLQVNLAISLHAPNNEVRTSIMRINRSFPIEKLMAAIDEYIEKTNRRVTFEYIMLSQVNDRPEHAQQLADLLRNKKKLSYVNLIPYNPVSEHDQYSRSSKEAVLKFYDVLKKNGINCVIRKEHGTDIDAACGQLRSKQMKKEKVKNQ
MGSDKIHHHHHHMQKLMHCSIMDLRLLVAVADAGNMSKGGAVCFLAPSTASLRIKHLEAIVGTRLFRREARGVSLTRAGQIMVDHSRRCLTEIEQMQASLTPFSEDVHAQLVLYANSSAIASFLPGDLQGFLQSHPKARITLEEHLSRDVLVAVVEGRADIGILTKDEPHPDLVYFPYHEDEIVLLLAETQPWTKTEPVAFLDCLSFPFVSQQNGSAIHSFLLAKASEQGRRVDVRIQVAGFAAVASMVRSGVGVAIVPRSALAAINVEGLRVVALSDAWARRTLSLCVRRDVLGSRNYVTALVDVLRQSGDQAGVADSA
MGSDKIHHHHHHMQKLVEQVWDYTKHAKFYSYRPNYAPKTIDMLISLVGKKDIKVADIGAGTGNLSIMLLERGCKVVSVEPNDAMREIGIERTKDQKIDWVRATGLNSTLQNSEFDWVTFGSSFNVMDRNEALEEAHRLLKSEGYFSCMWNHRDLNDPVQKIAEDTIVEFVPNYTRGTRREDQRPIIESRKDLFDNIVYIEEDFYFHQSIENYINAWKSVKNPYWDLETDEGNELFNKISNKISQRLPKEFSIKYTTRCWSAKKI
MGSDKIHHHHHHMQKRNELPGHLAVAPFTLDSARASGVSRARLRRKDVVHVGRGLYRPSDWNFELEAAARALSTASPGAWISHVTAARLHCQLLPPWLADSTELHLSKPRALPSVRRSGVIGHTVVALEDEIESIDGLRVSTRSRTWLDLARRLPVSDLVCMGDQLIRVPRVAFEGRTRPYDTLDGLRTLVGRHPNLQGVVRAREALHLMRVGADSAPESLLRLAMADAGLPEPELQLALRPTDAVSPTADLGYRHRRLAIQYDGEHHLLDAQIFSDRRRDKAFESAGWTVLILGKDDLADGCRPAVSKIKRLLRTAWLDHPQASGFADAG
MGSDKIHHHHHHMQNPRRICVADPNHRLSQKRFTRNSRDIFICPDCGCIMADVDFDHDQYESGDYYTMQHKTVQSIEEVWGFRWRYILDQILKINGRSSLLDVGAGNGYFVALASREFSFDASGLEISQEEVQFAADVLNIGLIREDLTQHNLDYDVVTCLNVLEHVVDPQLFLSHLVNRVKPGGLLVITTPNPACIHRKVKGLKNWNMIAPPHHINLFTKESLYILLMRYGLIQLDYQTISTYVNFVRGFDTENLLLRRLFFNLLKIFDLGADHFFIVKKPSQC
MGSDKIHHHHHHMQPLAFRMRPRTIEEIVGQQHLVGPGKIIDRMVKAKLLSSMILYGPPGTGKTSIASAISGSTKYAFRILNAATDSKKDLQIVAEEAKMSGTVILLLDEIHRLDKTKQDFLLPHLENGNIILIGATTENPYININPAIRSRTQIFEVKPLQPDEIKKAVLAAIKDSSRGLGELPIVIDEDALKFVSESTNGDLRSALNAVELAARSTGPDENQKIHLTLAILEECLQKRALTQDKDGDAHYDVISAFQKSIRGSDTDAALHYMARLLESGDLQSVIRRLLIIAYEDIGLANPPACQRTVSAVTAAEHVGLPEARIPLADAVIELCVSPKSNSGISAIDNALTDVRTGKIGEVPDHLRDSHYKGAAALGRGVDYKYPHNYPNDWIAQQYLPDKLVDAAYFDAKGNSTYEEKIKNRYESLKKSQRSNH
MGSDKIHHHHHHMQPNPTLDQLQIFVAVADSGSFSAAGRKLNRAQSVISYGIANLEAQLGLKLFEREGTREPQLTEIGRSMLEDARRMIGVLQRMRSRVDGHHHGLEAEVALSVDAALPSPVLVRVLKAFEAQFPTVMLRLHIGSLGLIPDHVVSGQADLGIGGLLGDVDVHLVRIGFMSIVLAAAPSHPLALLPKPLAIEDVREHTQLVVTDQSERTKGRDFGVFAYRTWRLTDMRTKHMLMREGLGWGGLPRWLIADDLVNGRLVELDLEPFSEVKSPMFAMHRNDSSPKPAAAWLIERFKRGLGCFNEFEPGEVPEDEPETIRQSAP
MGSDKIHHHHHHMQRSPIRRSNYTPRNEKGLEGVIELQLNVVSDYLHVGSGKYDVEVMRSVSDVKRLVEDYLSGGNKRIPNNVDQYFSMVAFLMVRNKDNVVIPGSTIKGMVRSRLELSVPGSCYIVTGHSTSSSAVYKRIFNPDPNRGSDRFDVNKFPQVCPVCDLLGNMGLASRVSLSDFVMTSGKVDYVNVKGRDYEVVTKGSIFAGKVLYKSLKPVEIGMLLYGFGFVKDCNGSKVMLLGRFKFSDKRFGRVKFSLKTPIADCNKLVSDFVKQFNPRYINEEW
MGSDKIHHHHHHMQRVRQICVVGGSGFVGSALVHRLSTAGYDVKVLTRRRESSKHLILLPNVQVTECDVFNEASLSGQLHGQDAVINLAGILHESGNATFESIHVDLATRIADICCKQGVPRLLHMSALKASADAKSAYLRSKAAGEQAVLRRADELQVTVFRPSVIFGRGDHFLSMLANVVNMMPVVAVAKPNAKFQPIWVEDVAYVFLTALENVSTYGRSIDLGGPQVYTLKQLIELTALLLGKKRRIVSLNDKLSYYQAYALELMPFKLMTRDNLLSMEVDSVCDGPISEFFGHSLASLEAIAPEYIAGETPRSAYERFRSLAGRTFSRR
MGSDKIHHHHHHMQSKIAEAIKLGNQPVAVMRSDAKPEGAMQFKEGRWGCAISLLNMAAKGQVAVFANSTTTCSGGKVGLGFRQFELGFIEHFLSVGGVGGREGEFYKKNPELAGKFALELPKVTAKEYIIFKPLSELKADETPEGIIFLANADQISALTVLANYDRPTQDNVKVNFGAGCHQTVLFTLDQVDKDEDHCFIGLTDPSARKFIDKDILSFSMTYKRFLELEEQVEESFLTKETWLKVAERI
MGSDKIHHHHHHMQTFHELEQTQSVIATILRNSLQTNRINHAYIFTGDYEPLLLEAAQLFAKSLFCERRDQIEPCQTCRSCRRMDSGNLVDYYQIEPDGATIKKEQIQELMHDLSLRGLEGDRQIYVVTQSHKMTPQAANSLLKFFEEPGAGKVAILITNQPQLLLPTIRSRGQLLSFRPADRLLIGQVLSEKTGRDNELTQLAARVYPKIEDAEQALVEDWFVNARVSVLQLMEELANRPADLPLFVQEKWMSQFKNRQDARIGLELVTCFFEDVLHLKLNPSWETITYANSRPLLEQMGGKSQTTITRWLQAVLAAVKRIEANVNPQLTVERLMFDLQKG
MGSDKIHHHHHHMQWDVIVVGGGPSGLTMAAELAGSGVRTLVLERRTDGVQSRAGTIMPRVLELLDARGIAHRFIEKTRAISNYPFRPSHIWAGFHPINWKYLESRFGFTLGLPQNHTEEILGAWAAECGAEIRTGMEVLDVRQSDDAVEIDVLDVAGTVATLHARYAVGADGGRSVVRNRLGLPFEGHSGTFRGIVIDAELHAPWPGGRVNVDNEMGWVRGYVFGDGVTRFNIVHRDRRHAPKDEPVTLEEALQCIRDVHGTDYGIRAFRWASRFDDQMRMVSSLRKGRVFLVGESARIHYPASGVGMNFCLQDAFNLGWKLANVINGVADPSTLDTYDAERLPVMHALLESVKAQCALQFNFEPDAVALKRRMQEHIIPLPDVQRKLVLELSGLEAPYPRAPSSHSLTGQRCPDLDLLLPDGSAVAVTQTLRERRFVLLDLEGFSRQFAALNLSGWPVTVLAARAARIPASMEGVKALLLRPDGYVAWAATDVAQAAEAEAQLAKWLKR
MGSDKIHHHHHHMREDFLSREEVDALLRGVSSGSTTSEQSTANPGFRPYNLATQERIVRGRMPTLEIINERFARLLRLGLFNFMRRSANVTAGPVRVMKFSEFVRNLAAPSNLNLVHIKPLRGTSLFVFDPTLVFLVVDNLFGGDGRFLPKTEGRDFTQTEQRIIQRLLNLVFDSYGKSWHPVYPIEFEYLRAETNTQFANVATPNEVVVATTFEVNFGSVVGEMHICMPYSILEPIRDLLSSTLQGEALEVDKRWVGRLSKQVQSAEVTLLANLTHAQVRLDQILNMKVGDVIPLDIPEFVTASVDGVPVMECKYGISNGRYALRMEKMLASGNSNE
MGSDKIHHHHHHMRGKILIFLHAHLPYVHHPEYDHFLEERWLFEAITETYIPLLMMFDEIEDFRLTMSITPPLMEMLSSRDLQEKYERHMEKLIELANKEVERTKKEHPLKHKMAKFYREHFEKILNVFRSYDGNILEGFKKYQETGKLEIVTCNATHAFLPLYQMYPEVVNAQITVGVKNYAKHMTLHPRGIWLAECGYYQGLDLYLAQNNVEYFFVDSHAFWFADEQPRYGVYRPIMTPSGVFAFARDPESSEQVWSAAVGYPGDPRYREFYRDIGFDREMEYIKDYIDPSGVRINTGIKYHRITSKSLDASQKEYYDIDLAMEAVEEHARDFLHKKESQARRLMDIMGVEPVIVAPFDAELFGHWWFEGVFFLKRFFELVNESKDLKLVTASEVIDTLEEVQIATPADSSWGAGGYYETWLNGTNDWIYRHLHEMIERMIDLSKKYYNSSDPLVERVLNQMLRELFLAQSSDWAFIMTTRTSVQYAENRTKLHIKRFLNLYDQLVSGRIDEEMLRYYEWTDAIFPEINFRVMARDVI
MGSDKIHHHHHHMRIAIVHYWLVGMRGGEKVIEALCRMYPQADIFTHVVAPERLSSMLAARHIRTSFIQRLPGSVRHYQKYLPLMPLALEQFDLRDYDLVISSESGPAKGVLTRADTAHVCYCHSPMRYLWDFQQDYLDNASPLMRPFMRIFFHYLRQWDVASSQRVDRFVANSRNVARRITKHWRREATVVHPPVECDLFTQAPDVADLPDDEVADIVRQGGYYLCLGQLVGYKRVDIAIEACRKAGRRLVVVGDGEQRAMLERNAPEGVTFLGWRTQDEIRALYAGCRALLFPGEEDFGIVPVECMASGRPVIAYGKGGALETVLDGETGVLFHEQTATACHDAIMRHERMERDFVPDSLRRHARTFDTSVFERKFRREVEAALHAVRG
MGSDKIHHHHHHMRIAVIGGGASGMVTAYLLDKQGHHITVFERQPMLGGHIRTLNKNVKPNQSDCNEMLESGVLEFPTVFHNFVALMQELGVELEPIRVGSALFPKDGSPFFSKVTNENNYTGIQRFIEYLRFDTIHTRSLGLWLKTRFAQMEDFYNRPLSQYVNNQSISNTWLKLLTMYSYSMPFELIDNFPAEMGIPMLRDYLAVKWLRIKGGVYSYIEKILERFQGEVLLNVEIVNISRSPDGVIIQRSHGEIQEFDKVVFATPPDQVIALLADPTEAEIKRFSDWKANYATTTIHTDIFMYDHHHIHHPSEFDFFQTDTQWGYNSCLNQLCGISSPQHYFLSFQLEELIAKDRIIHTQEHHTPLYTTESFRYRDEVVATNGENNTYYAGAYLGDGLHEGAIASAFRVAQLIGSPLAVSISGFNDRNADTVEIAADTAGIGKYLTHPRFHRS
MGSDKIHHHHHHMRIIILSSSTNRSGGTRQAFYQARELATRGHHVSLCLPEDSQMHGMGYDDLIVTLPADRKRWKASIEALFAADGPTVVHAFHNRAVKFVAWHGMFWRHRGVVCCAHRGVMYRPGNPLPYISPGMDAFIANSQACARVLRLFTPAGKLFVVYNGVDDARVTPRTPADTAREQVGLPPRGAEAAWSSSSPAPLVFGFVGQNSPVKGADILIDAFARADVGEARLLMVGVSHDMWRPRCEALGIADRVHLVPHTESVSDMLQLMDAFVLPSRTESLPNTMLEAIRMGLPVIGSAVGGVPELVRGNGLLFPAGDIDALAAALGRMASDHATREAWAAASHAEGERYTIHARVDALEDIYAQLLRRRGLHTA
